Data on one substance can be found in patent US5945288.

In the data set the test system is PmeI restriction endonuclease (Pseudomonas mendocina). Description: cleavage_in_vitro. The settings on record: column fractions assayed on lambda DNA.

In turn, bacteriophage lambda DNA yielded an activity (units (total purified)) of 116000.
